The Immune Epitope Database (IEDB)

How the values were obtained:
Assay in all cases: IEDB peptide-MHC binding, purified MHC/competitive/radioactivity; ≥ and ≤ were set here for values at or beyond the usual limits of such assays
HLA-A*02:03 = molecular target: HLA-A*02:03
HLA-A*02:01 = molecular target: HLA-A*02:01
HLA-A*68:02 = molecular target: HLA-A*68:02
HLA-A*02:06 = molecular target: HLA-A*02:06
HLA-A*02:02 = molecular target: HLA-A*02:02
[1] = source organism: Vaccinia virus WR
[2] = source organism: Influenza A virus
[3] = source organism: Hepacivirus hominis

| Sequence | IC50 (HLA-A*02:03; [1]) | IC50 (HLA-A*02:01; [1]) | IC50 (HLA-A*68:02; [1]) | IC50 (HLA-A*02:06; [1]) | IC50 (HLA-A*02:02; [1]) | other results |
| --- | --- | --- | --- | --- | --- | --- |
| ELAYYNSCM | 136 nM | 4370 nM | 278 nM | 3580 nM | 129 nM | – |
| MQKFTILEYL | 279 nM | 3730 nM | 3730 nM | 909 nM | 164 nM | – |
| SVMNFIPII | 6.3 nM | 1.7 nM | 58 nM | 2.8 nM | 13 nM | – |
| PTSETMYLTM | 191 nM | 529 nM | 4210 nM | 915 nM | 862 nM | – |
| QIFNIISYII | 206 nM | 355 nM | 332 nM | 743 nM | 288 nM | – |
| TAYIGTSNWT | 1050 nM | 4150 nM | 555 nM | 220 nM | 1760 nM | – |
| TILATLNTLI | 30 nM | 184 nM | 1470 nM | 335 nM | 40 nM | – |
| CIVAAVIIMA | 619 nM | 1900 nM | 1.3 nM | 733 nM | 1130 nM | – |
| ITAIYVFCI | – | – | – | – | – | IC50 (HLA-A*02:03; source organism: SARS-CoV1): 89 nM; IC50 (HLA-A*02:01; source organism: SARS-CoV1): 127 nM; IC50 (HLA-A*68:02; source organism: SARS-CoV1): 272 nM; IC50 (HLA-A*02:06; source organism: SARS-CoV1): 132 nM; IC50 (HLA-A*02:02; source organism: SARS-CoV1): 29 nM |
| KTDGAVTSPL | 400 nM | 1080 nM | 542 nM | 347 nM | 62 nM | – |
| STDQDTMLFA | 4700 nM | 3520 nM | 1550 nM | 2020 nM | 646 nM | – |
| LLFNKVTLA | – | – | – | – | – | IC50 (HLA-A*02:03; source organism: SARS-CoV1): 1.1 nM; IC50 (HLA-A*02:01; source organism: SARS-CoV1): 5 nM; IC50 (HLA-A*68:02; source organism: SARS-CoV1): 288 nM; IC50 (HLA-A*02:06; source organism: SARS-CoV1): 9 nM; IC50 (HLA-A*02:02; source organism: SARS-CoV1): 0.95 nM |
| WLLWPVTLA | – | – | – | – | – | IC50 (HLA-A*02:03; source organism: SARS-CoV1): 1.2 nM; IC50 (HLA-A*02:01; source organism: SARS-CoV1): 6.8 nM; IC50 (HLA-A*68:02; source organism: SARS-CoV1): 151 nM; IC50 (HLA-A*02:06; source organism: SARS-CoV1): 17 nM; IC50 (HLA-A*02:02; source organism: SARS-CoV1): 12 nM |
| YVSVMNFIPI | 152 nM | 127 nM | 55 nM | 0.11 nM | 341 nM | – |
| QIFNIISYI | 15 nM | 15 nM | 6.4 nM | 1.8 nM | 111 nM | – |
| FLAFVVFLL | – | – | – | – | – | IC50 (HLA-A*02:03; source organism: SARS-CoV1): 88 nM; IC50 (HLA-A*02:01; source organism: SARS-CoV1): 0.24 nM; IC50 (HLA-A*68:02; source organism: SARS-CoV1): 391 nM; IC50 (HLA-A*02:06; source organism: SARS-CoV1): 2.6 nM; IC50 (HLA-A*02:02; source organism: SARS-CoV1): 0.41 nM |
| FISIYSRPKI | 102 nM | 135 nM | 592 nM | 396 nM | 23 nM | – |
| STTENAAYQV | 4700 nM | 1180 nM | 15 nM | 101 nM | 928 nM | – |

| Sequence | IC50 (HLA-A*02:03; [1]) | IC50 (HLA-A*02:01; [1]) | IC50 (HLA-A*68:02; [1]) | IC50 (HLA-A*02:06; [1]) | IC50 (HLA-A*02:02; [1]) | other results |
| --- | --- | --- | --- | --- | --- | --- |
| SLSNLDFRL | 1760 nM | 2880 nM | 23 nM | 1380 nM | 1310 nM | – |
| VTLFIDRGSI | 2250 nM | 1500 nM | 14 nM | 3010 nM | 3830 nM | – |
| FIPIIYSKA | 1.8 nM | 163 nM | 78 nM | 95 nM | 0.56 nM | – |
| IVAALVFLI | – | – | – | – | – | IC50 (HLA-A*02:03; source organism: SARS-CoV1): 15 nM; IC50 (HLA-A*02:01; source organism: SARS-CoV1): 2.1 nM; IC50 (HLA-A*68:02; source organism: SARS-CoV1): 0.58 nM; IC50 (HLA-A*02:06; source organism: SARS-CoV1): 1.8 nM; IC50 (HLA-A*02:02; source organism: SARS-CoV1): 0.14 nM |
| WSYNAELLVA | – | – | – | – | – | IC50 (HLA-A*02:03; [2]): 14 nM; IC50 (HLA-A*02:01; [2]): 256 nM; IC50 (HLA-A*68:02; [2]): 1620 nM; IC50 (HLA-A*02:06; [2]): 15 nM; IC50 (HLA-A*02:02; [2]): 242 nM |
| RAKRKPAMST | 1380 nM | 785 nM | 551 nM | 1550 nM | 977 nM | – |
| NVDIIDLLL | 4090 nM | 858 nM | 262 nM | 22 nM | 461 nM | – |
| WLKDSAIMV | 28 nM | 326 nM | 1010 nM | 2280 nM | 191 nM | – |
| RIASILSLET | 449 nM | 985 nM | 442 nM | 751 nM | 583 nM | – |
| FTFGDTALYV | 48 nM | 181 nM | 175 nM | 3.5 nM | 24 nM | – |
| IVAAVIIMAI | 2610 nM | 4430 nM | 95 nM | 4510 nM | 727 nM | – |
| SCLENFRAYV | – | – | – | – | – | IC50 (HLA-A*02:03; [2]): 55 nM; IC50 (HLA-A*02:01; [2]): 20 nM; IC50 (HLA-A*68:02; [2]): 224 nM; IC50 (HLA-A*02:06; [2]): 162 nM; IC50 (HLA-A*02:02; [2]): 90 nM |
| TIFDIVSKCI | 94 nM | 596 nM | 109 nM | 701 nM | 198 nM | – |
| VLMTHFFSV | – | – | – | – | – | IC50 (HLA-A*02:03; [3]): 2.6 nM; IC50 (HLA-A*02:01; [3]): 1.9 nM; IC50 (HLA-A*68:02; [3]): 103 nM; IC50 (HLA-A*02:06; [3]): 6.1 nM; IC50 (HLA-A*02:02; [3]): 4.9 nM |
| FLAFVVFLLV | – | – | – | – | – | IC50 (HLA-A*02:03; source organism: SARS-CoV1): 211 nM; IC50 (HLA-A*02:01; source organism: SARS-CoV1): 78 nM; IC50 (HLA-A*68:02; source organism: SARS-CoV1): 4320 nM; IC50 (HLA-A*02:06; source organism: SARS-CoV1): 2980 nM; IC50 (HLA-A*02:02; source organism: SARS-CoV1): 2.4 nM |
| NVISKIYTL | 97 nM | 147 nM | 4.6 nM | 1.7 nM | 147 nM | – |
| VLMVDSFDPV | – | – | – | – | – | IC50 (HLA-A*02:03; [3]): 12 nM; IC50 (HLA-A*02:01; [3]): 33 nM; IC50 (HLA-A*68:02; [3]): 1520 nM; IC50 (HLA-A*02:06; [3]): 31 nM; IC50 (HLA-A*02:02; [3]): 13 nM |
